For data set [1], the target named is glucose oxidase (UniProt P13006).
Data set [2] concerns the target modified bovine serum albumin (denatured and partially refolded) (UniProt P02769).
For data set [3], the target named is ovalbumin, native (UniProt P01012).
Data set [4] relates to histone protein, native.
Data set [5] relates to recombinant serum albumin.
The target of data set [6] is modified ovalbumin (denatured and partially refolded) (UniProt P01012).
Data set [7] concerns the target T1, β-casein (UniProt P02666).
T1 sequence: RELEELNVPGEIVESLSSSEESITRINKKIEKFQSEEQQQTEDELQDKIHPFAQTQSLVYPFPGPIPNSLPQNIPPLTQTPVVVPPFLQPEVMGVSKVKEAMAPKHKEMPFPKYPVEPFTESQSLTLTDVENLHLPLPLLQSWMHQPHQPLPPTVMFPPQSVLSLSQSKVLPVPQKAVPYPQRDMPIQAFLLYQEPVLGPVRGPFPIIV

The subject of data set [8] is modified histone H3 protein (denatured and partially refolded).
Data set [9] relates to myelin basic protein (MBP).
myelin basic protein (MBP), sequence (P02687 whole entry): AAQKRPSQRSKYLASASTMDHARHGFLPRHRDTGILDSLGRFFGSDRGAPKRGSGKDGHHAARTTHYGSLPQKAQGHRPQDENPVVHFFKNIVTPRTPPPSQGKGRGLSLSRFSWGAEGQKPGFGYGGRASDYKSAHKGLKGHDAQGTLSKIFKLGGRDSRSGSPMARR
The test system of data set [10] is synthetic Bovine Serum Albumin peptide 5 (BSA5).
Data set [11] deals with bovine serum albumin (BSA), native (UniProt P02769).
bovine serum albumin (BSA), native, sequence (P02769 25-607): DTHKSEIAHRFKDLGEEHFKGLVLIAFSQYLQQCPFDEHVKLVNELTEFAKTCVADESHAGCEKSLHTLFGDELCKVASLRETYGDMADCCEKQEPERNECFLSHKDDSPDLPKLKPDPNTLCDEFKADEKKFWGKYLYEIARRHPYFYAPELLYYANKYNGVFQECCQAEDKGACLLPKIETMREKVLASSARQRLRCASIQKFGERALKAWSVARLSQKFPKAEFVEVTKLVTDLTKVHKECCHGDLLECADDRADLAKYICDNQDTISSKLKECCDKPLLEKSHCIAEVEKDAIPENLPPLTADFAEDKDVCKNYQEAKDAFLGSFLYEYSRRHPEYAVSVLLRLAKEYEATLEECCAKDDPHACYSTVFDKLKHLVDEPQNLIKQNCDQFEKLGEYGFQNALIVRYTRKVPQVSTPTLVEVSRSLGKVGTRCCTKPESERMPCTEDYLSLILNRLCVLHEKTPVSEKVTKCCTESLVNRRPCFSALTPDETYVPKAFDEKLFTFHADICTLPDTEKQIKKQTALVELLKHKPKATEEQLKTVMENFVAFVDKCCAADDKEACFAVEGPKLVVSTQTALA
The subject of data set [12] is β-amyloid peptide (1-42).

recombinant serum albumin, sequence (P02768 25-609): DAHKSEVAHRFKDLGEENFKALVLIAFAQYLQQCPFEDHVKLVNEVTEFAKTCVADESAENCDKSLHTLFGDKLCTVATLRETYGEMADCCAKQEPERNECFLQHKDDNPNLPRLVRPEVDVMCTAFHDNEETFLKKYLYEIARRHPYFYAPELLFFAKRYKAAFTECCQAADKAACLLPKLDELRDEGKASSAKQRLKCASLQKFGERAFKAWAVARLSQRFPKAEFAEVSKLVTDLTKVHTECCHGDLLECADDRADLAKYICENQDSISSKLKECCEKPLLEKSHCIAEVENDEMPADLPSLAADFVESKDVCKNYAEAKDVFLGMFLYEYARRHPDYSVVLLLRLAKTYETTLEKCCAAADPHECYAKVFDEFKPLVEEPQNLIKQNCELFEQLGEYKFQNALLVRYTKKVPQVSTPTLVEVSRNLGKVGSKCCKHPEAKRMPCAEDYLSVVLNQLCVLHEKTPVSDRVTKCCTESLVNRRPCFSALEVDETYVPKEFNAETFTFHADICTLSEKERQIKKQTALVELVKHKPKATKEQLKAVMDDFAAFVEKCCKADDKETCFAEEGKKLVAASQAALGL
ovalbumin, native, sequence (P01012 2-386): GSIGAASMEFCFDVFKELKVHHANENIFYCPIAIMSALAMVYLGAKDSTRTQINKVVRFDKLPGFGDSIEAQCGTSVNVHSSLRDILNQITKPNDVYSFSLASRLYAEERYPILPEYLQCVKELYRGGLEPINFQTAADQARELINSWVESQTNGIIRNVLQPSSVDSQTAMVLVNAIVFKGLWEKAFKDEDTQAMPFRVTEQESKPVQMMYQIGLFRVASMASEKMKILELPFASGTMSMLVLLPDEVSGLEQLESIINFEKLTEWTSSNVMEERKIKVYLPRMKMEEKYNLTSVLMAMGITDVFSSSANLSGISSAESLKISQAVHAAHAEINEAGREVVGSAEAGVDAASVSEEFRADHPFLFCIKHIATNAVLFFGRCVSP
modified ovalbumin (denatured and partially refolded), sequence (P01012 2-386): as above
glucose oxidase, sequence (P13006 23-605): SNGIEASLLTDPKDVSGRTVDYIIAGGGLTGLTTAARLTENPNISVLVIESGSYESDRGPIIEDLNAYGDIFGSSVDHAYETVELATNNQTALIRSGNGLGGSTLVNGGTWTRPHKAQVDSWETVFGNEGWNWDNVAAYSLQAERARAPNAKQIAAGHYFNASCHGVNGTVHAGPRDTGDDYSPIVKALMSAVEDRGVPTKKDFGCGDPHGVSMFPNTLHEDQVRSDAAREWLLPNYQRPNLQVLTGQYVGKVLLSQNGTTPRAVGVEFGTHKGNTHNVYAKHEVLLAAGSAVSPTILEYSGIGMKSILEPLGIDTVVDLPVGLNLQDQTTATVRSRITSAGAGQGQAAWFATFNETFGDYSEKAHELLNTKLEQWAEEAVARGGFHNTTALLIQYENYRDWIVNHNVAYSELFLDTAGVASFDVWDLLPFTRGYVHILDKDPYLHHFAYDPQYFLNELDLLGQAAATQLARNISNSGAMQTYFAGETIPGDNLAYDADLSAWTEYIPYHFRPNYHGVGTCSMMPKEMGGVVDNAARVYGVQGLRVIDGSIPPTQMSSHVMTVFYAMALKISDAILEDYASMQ
modified bovine serum albumin (denatured and partially refolded), sequence (P02769 25-607): as the sequence (P02769 25-607) above

B1: recombinant 6X-His-TGase fusion protein of Streptomyces mobaraensis ATCC 29032 (enzyme, UniProt P81453 77-407, looked up)
Protein-glutamine gamma-glutamyltransferase: DSDDRVTPPAEPLDRMPDPYRPSYGRAETVVNNYIRKWQQVYSHRDGRKQQMTEEQREWLSYGCVGVTWVNSGQYPTNRLAFASFDEDRFKNELKNGRPRSGETRAEFEGRVAKESFDEEKGFQRAREVASVMNRALENAHDESAYLDNLKKELANGNDALRNEDARSPFYSALRNTPSFKERNGGNHDPSRMKAVIYSKHFWSGQDRSSSADKRKYGDPDAFRPAPGTGLVDMSRDRNIPRSPTSPGEGFVNFDYGWFGAQTEADADKTVWTHGNHYHAPNGSLGAMHVYESKFRNWSEGYSDFDRGAYVITFIPKSWNTAPDKVKQGWP
modifications: N-terminal 6xHis tag
Regarding B1, the “cross-linking of native non-substrate proteins” value in data set [1], in data set [3], in data set [4], in data set [9] and in data set [11] was “there was no cross-linking even in the presence of a large amount of the purified recombinant transglutaminase fusion proteins in the activation solution” each time. In addition, the “cross-linking seen on SDS-PAGE” value in data set [2] is “only the reactions containing the modified protein species of BSA, histine H3 protein, glucose oxidase, and ovalbumin were cross-linked by the purified recombinant SM TGase”; in data set [4], “complete and partial cross-linking was both observed for native histine H3 protein under the condition tested”; in data set [5], “the cross-linking reaction containing recombinant serum albumin revealed a mixture of very high molecular weight polymers of different length”; in [6], “only the reactions containing the modified protein species of BSA, histine H3 protein, glucose oxidase, and ovalbumin were cross-linked by the purified recombinant SM TGase”; in [7] it was “the cross-linked (CL) β-casein migrated as a smear on the SDS-PAGE gel indicating a mixture of high molecular weight polymers of different length”; in data set [8] it was “only the reactions containing the modified protein species of BSA, histine H3 protein, glucose oxidase, and ovalbumin were cross-linked by the purified recombinant SM TGase”. Also, the “cross-linking of a mixture of β-casein and glucose oxidase, SDS-PAGE” value in [7] is on record as “both protein species can be cross-linked by the purified recombinant SM TGase, as indicated by the disappearance of the two monomer bands”. Also, in [7], the “cross-linking of β-casein seen on SDS-PAGE, 0 mM DTT” value was “in the absence of DTT (lane 1 and 2), the recombinant SM TGase had no cross-linking activity on β-casein”. For the same protein, the “cross-linking of β-casein seen on SDS-PAGE, about 2 mM DTT” value in data set [7] was “the recombinant SM TGase was activated and β-casein run as a mixture of cross-linked polymer and monomer”. In addition, the “cross-linking of β-casein seen on SDS-PAGE, about 10 mM DTT” value in data set [7] was “the catalytic cross-linking activity of SM TGase resulted in cross-linking of all detectable β-casein substrates in the reaction”. In addition, the “cross-linking seen on SDS-PAGE, rising amounts of SM TGase” value in [10] is “increased amount of recombinant SM TGase corresponding to an increase in cross-linked (CL) BSA5 peptide, which run as a large molecular weight polymer on the top of the separating gel”. The “cross-linking seen on SDS-PAGE, 1, 2 and 3 hours” value in [12] was “The β-amyloid (1-42) peptide can be cross-linked by the recombinant transglutaminase as shown as a smear of a mixture of cross-linked peptides on the top of the separating gel and the disappearance of the peptide bands at the bottom of the SDS-PAGE”.

The record behind these values is US20030219857.
